94 variants from the supplement of paper PMC10567573 can be followed below.

B1: POMT2 (parent)
chain: YHEAPMTRKHYQVTGYGINGTGDS
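Note: lentivirally expressed fusions sorted by FACS into six bins by GFP to DsRed ratio, PSI derived from sequencing read proportions per bin multiplied by bin number.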

In the data set the parent is B1. Description: protein stability index of a GFP-peptide fusion (GPS, HEK-293T) (PSI 1-6); higher = more stable. Particulars: c terminus: a fixed tail appended.
In the case of YHEAPMTRKHYQVQGYGINGTGDS [T14Q], the protein stability index is 2.87.

As to YHEAPMTRKHYQVEGYGINGTGDS [T14E], the protein stability index is 2.96.

Take YHEAPMTRKHYQVFGYGINGTGDS [T14F]: the protein stability index stood at 2.57.

As for YHEAPMTRKHYQVVGYGINGTGDS [T14V], the protein stability index worked out at 1.84.

Take YHEAPMTRKHYQVSGYGINGTGDS [T14S]: the protein stability index is 2.03.

As for YHEAPMTRKHYQVLGYGINGTGDS [T14L], the protein stability index was 1.99.

As to YHEAPMTRKHYQVDGYGINGTGDS [T14D], the protein stability index is 3.36.

With YHEAPMTRKHYQVPGYGINGTGDS [T14P], the protein stability index is 2.54.

Turning to YHEAPMTRKHYQVMGYGINGTGDS [T14M], the protein stability index worked out at 2.05.

For the variant YHEAPMTRKHYQVRGYGINGTGDS [T14R], the protein stability index worked out at 2.13.

As to YHEAPMTRKHYQVGGYGINGTGDS [T14G], the protein stability index is 3.05.

As for YHEAPMTRKHYQVCGYGINGTGDS [T14C], the protein stability index came to 3.13.

With YHEAPMTRKHYQVAGYGINGTGDS [T14A], the protein stability index was 1.85.

With YHEAPMTRKHYQVYGYGINGTGDS [T14Y], the protein stability index stood at 1.54.

For YHEAPMTRKHYQVKGYGINGTGDS [T14K], the protein stability index was 1.97.

With YHEAPMTRKHYQVNGYGINGTGDS [T14N], the protein stability index worked out at 2.39.

Regarding YHEAPMTRKHYQVWGYGINGTGDS [T14W], the protein stability index came to 1.41.

As for YHEAPMTRKHYQVHGYGINGTGDS [T14H], the protein stability index came out at 2.53.

With YHEAPMTRKHYQVIGYGINGTGDS [T14I], the protein stability index was 2.12.

Turning to YHEAPMTRKHYQVTGYGIAGTGDS [N19A], the protein stability index came out at 1.8.

Regarding YHEAPMTRKHYQVTGYGIHGTGDS [N19H], the protein stability index worked out at 2.25.

In the case of YHEAPMTRKHYQVTGYGIWGTGDS [N19W], the protein stability index was 2.24.

As to YHEAPMTRKHYQVTGYGIMGTGDS [N19M], the protein stability index came out at 2.62.

Take YHEAPMTRKHYQVTGYGIVGTGDS [N19V]: the protein stability index is 2.03.

YHEAPMTRKHYQVTGYGIFGTGDS [N19F]: the protein stability index was found to be 2.3.

For YHEAPMTRKHYQVTGYGIGGTGDS [N19G], the protein stability index came to 2.4.

On to YHEAPMTRKHYQVTGYGILGTGDS [N19L], for which the protein stability index worked out at 2.06.

Turning to YHEAPMTRKHYQVTGYGISGTGDS [N19S], the protein stability index turned out to be 2.3.

For YHEAPMTRKHYQVTGYGIIGTGDS [N19I], the protein stability index was determined as 1.9.

In the case of YHEAPMTRKHYQVTGYGITGTGDS [N19T], the protein stability index was 2.21.

Consider YHEAPMTRKHYQVTGYGIQGTGDS [N19Q], for which the protein stability index worked out at 1.84.

Turning to YHEAPMTRKHYQVTGYGIYGTGDS [N19Y], the protein stability index worked out at 2.57.

As for YHEAPMTRKHYQVTGYGIDGTGDS [N19D], the protein stability index was found to be 1.88.

For the variant YHEAPMTRKHYQVTGYGICGTGDS [N19C], the protein stability index came to 2.02.

With YHEAPMTRKHYQVTGYGIKGTGDS [N19K], the protein stability index came to 2.44.

Consider YHEAPMTRKHYQVTGYGIEGTGDS [N19E], for which the protein stability index is 1.9.

In the case of YHEAPMTRKHYQVTGYGIRGTGDS [N19R], the protein stability index is 1.73.

YHEAPMTRKHYQVTGYGIPGTGDS [N19P]: the protein stability index is 2.4.

Turning to YHEAPMTRKHYQNTGYGINGTGDS [V13N], the protein stability index was determined as 2.65.

In the case of YHEAPMTRKHYQDTGYGINGTGDS [V13D], the protein stability index is 3.46.

With YHEAPMTRKHYQRTGYGINGTGDS [V13R], the protein stability index is 3.24.

For the variant YHEAPMTRKHYQQTGYGINGTGDS [V13Q], the protein stability index amounted to 3.11.

Consider YHEAPMTRKHYQHTGYGINGTGDS [V13H], for which the protein stability index was found to be 2.84.

For the variant YHEAPMTRKHYQGTGYGINGTGDS [V13G], the protein stability index turned out to be 2.52.

On to YHEAPMTRKHYQFTGYGINGTGDS [V13F], for which the protein stability index came to 2.08.

For the variant YHEAPMTRKHYQPTGYGINGTGDS [V13P], the protein stability index is 2.34.

With YHEAPMTRKHYQWTGYGINGTGDS [V13W], the protein stability index came to 2.23.

Regarding YHEAPMTRKHYQTTGYGINGTGDS [V13T], the protein stability index stood at 2.6.

Take YHEAPMTRKHYQITGYGINGTGDS [V13I]: the protein stability index was found to be 2.21.

As for YHEAPMTRKHYQLTGYGINGTGDS [V13L], the protein stability index was 2.69.

As to YHEAPMTRKHYQSTGYGINGTGDS [V13S], the protein stability index was 3.32.

As for YHEAPMTRKHYQETGYGINGTGDS [V13E], the protein stability index stood at 3.61.

On to YHEAPMTRKHYQMTGYGINGTGDS [V13M], for which the protein stability index was found to be 2.59.

For the variant YHEAPMTRKHYQKTGYGINGTGDS [V13K], the protein stability index is 2.68.

On to YHEAPMTRKHYQYTGYGINGTGDS [V13Y], for which the protein stability index amounted to 2.97.

As for YHEAPMTRKHYQVTGYGINGTYDS [G22Y], the protein stability index was determined as 2.15.

Regarding YHEAPMTRKHYQVTGYGINGTPDS [G22P], the protein stability index was 3.15.

Consider YHEAPMTRKHYQVTGYGINGTEDS [G22E], for which the protein stability index turned out to be 2.35.

For YHEAPMTRKHYQVTGYGINGTKDS [G22K], the protein stability index was 2.29.

Regarding YHEAPMTRKHYQVTGYGINGTSDS [G22S], the protein stability index stood at 2.36.

In the case of YHEAPMTRKHYQVTGYGINGTRDS [G22R], the protein stability index came out at 1.92.

In the case of YHEAPMTRKHYQVTGYGINGTTDS [G22T], the protein stability index came to 1.95.

Turning to YHEAPMTRKHYQVTGYGINGTVDS [G22V], the protein stability index was 2.25.

As for YHEAPMTRKHYQVTGYGINGTCDS [G22C], the protein stability index was 1.91.

YHEAPMTRKHYQVTGYGINGTNDS [G22N]: the protein stability index is 2.18.

With YHEAPMTRKHYQVTGYGINGTMDS [G22M], the protein stability index came out at 2.04.

Take YHEAPMTRKHYQVTGYGINGTHDS [G22H]: the protein stability index came to 2.44.

For the variant YHEAPMTRKHYQVTGYGINGTDDS [G22D], the protein stability index amounted to 2.17.

With YHEAPMTRKHYQVTGYGINGTQDS [G22Q], the protein stability index came to 2.28.

Take YHEAPMTRKHYQVTGYGINGTFDS [G22F]: the protein stability index worked out at 2.3.

YHEAPMTRKHYQVTGYGINGTLDS [G22L]: the protein stability index turned out to be 2.28.

With YHEAPMTRKHYQVTGYGINGTWDS [G22W], the protein stability index was 1.7.

Regarding YHEAPMTRKHYQVTGYGINGTADS [G22A], the protein stability index stood at 2.26.

As for YHEAPMTRKHYQVTGYGINGTIDS [G22I], the protein stability index amounted to 1.68.

Turning to YHEAPMTRKHYQVTGYIINGTGDS [G17I], the protein stability index stood at 1.84.

For the variant YHEAPMTRKHYQVTGYYINGTGDS [G17Y], the protein stability index was 2.26.

On to YHEAPMTRKHYQVTGYHINGTGDS [G17H], for which the protein stability index is 2.06.

On to YHEAPMTRKHYQVTGYMINGTGDS [G17M], for which the protein stability index turned out to be 1.84.

YHEAPMTRKHYQVTGYSINGTGDS [G17S]: the protein stability index was determined as 1.62.

Turning to YHEAPMTRKHYQVTGYPINGTGDS [G17P], the protein stability index came out at 2.87.

Regarding YHEAPMTRKHYQVTGYWINGTGDS [G17W], the protein stability index is 2.6.

YHEAPMTRKHYQVTGYDINGTGDS [G17D]: the protein stability index was determined as 2.51.

As to YHEAPMTRKHYQVTGYLINGTGDS [G17L], the protein stability index is 2.5.

As for YHEAPMTRKHYQVTGYFINGTGDS [G17F], the protein stability index was determined as 1.79.

For YHEAPMTRKHYQVTGYRINGTGDS [G17R], the protein stability index is 2.37.

In the case of YHEAPMTRKHYQVTGYQINGTGDS [G17Q], the protein stability index worked out at 1.75.

For YHEAPMTRKHYQVTGYNINGTGDS [G17N], the protein stability index came out at 2.03.

In the case of YHEAPMTRKHYQVTGYKINGTGDS [G17K], the protein stability index turned out to be 2.13.

Regarding YHEAPMTRKHYQVTGYCINGTGDS [G17C], the protein stability index worked out at 2.41.

Take YHEAPMTRKHYQVTGYTINGTGDS [G17T]: the protein stability index was 2.24.

For YHEAPMTRKHYQVTGYAINGTGDS [G17A], the protein stability index was 1.9.

Turning to YHEAPMTRKHYQVTGYEINGTGDS [G17E], the protein stability index is 2.73.

As to YHEAPMTRKHYQVTGYVINGTGDS [G17V], the protein stability index is 2.08.

Regarding YHEAPMTRKHYQVTDYGINGTGDS [G15D], the protein stability index worked out at 2.31.
